± gives the uncertainty stated by the source.
Experiment: protein stability index of a GFP-peptide fusion (yeast GPS) (PSI 1-4); higher = more stable; sorted into four equal gates, so the index is relative within each strain
Summary of the method: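 The protein stability index of a peptide was calculated by multiplying its read frequency in each gate by that gate's number and adding the products. The peptides were tiled 17-residue stretches of yeast proteins, fused downstream of GFP on a Cherry-expressing plasmid and carried in yeast as a pooled library. Mid-log cultures in leucine-free medium were sorted into four equal gates by GFP/Cherry ratio, and each gate's plasmids were PCR-amplified and Illumina-sequenced.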

| Sequence | protein stability index (ubr1∆) | protein stability index (doa10∆) | protein stability index (pdr5∆) | protein stability index (san1∆) |
| --- | --- | --- | --- | --- |
| SVKSVKFPTRKIYMLYS [RPC34] | 3.58 ± 0.25 |  |  |  |
| YDPQRDKRFSGSLKLPN [RPL1A] | 3.08 ± 0.048 | 3.09 ± 0.065 | 3.33 ± 0.068 | 3.02 ± 0.052 |
| VDDVLETISAIEHPMTS [RPN1] | 2.91 ± 0.083 | 3.15 ± 0.13 | 3.2 ± 0.091 | 2.79 ± 0.16 |
| SEFDSRVKAMEVDEKPT [RPT5] | 2.97 ± 0.062 | 2.77 ± 0.11 | 2.76 ± 0.089 | 3.08 ± 0.14 |
| EHDLLRQIRPIMERIKS [ITC1] |  | 1.37 ± 0.28 | 2.3 ± 0.27 |  |
| QQQTSTFNSKPVRTIVP [SIR4] | 2.58 ± 0.028 | 2.38 ± 0.032 | 2.77 ± 0.036 | 2.6 ± 0.039 |
| KASSTPAGGLFGQASGA [YGL172W/NUP49] |  |  |  | 2.19 ± 0.26 |
| VEENRVRYTTSVMPPNE [DLS1] | 2.86 ± 0.055 | 2.62 ± 0.055 | 2.79 ± 0.051 | 2.85 ± 0.048 |
| SLLTLVGSVTYQVDEDV [YJL039C/NUP192] | 1.23 ± 0.14 | 1.8 ± 0.1 | 1.67 ± 0.13 | 2.66 ± 0.098 |
| AIKWDGSSGGVIRMVVL [PRE3] | 1.75 ± 0.049 | 2.56 ± 0.084 | 1.92 ± 0.071 | 2.71 ± 0.1 |
| SETQTKDENNTANDQYS [YCG1] | 3 ± 0.044 | 2.89 ± 0.069 | 3.15 ± 0.056 | 2.84 ± 0.041 |
| AFKKIDAITVKDVKAWA [COR1] | 1.9 ± 0.039 | 2.06 ± 0.076 | 1.91 ± 0.072 | 1.83 ± 0.14 |
| RLAAPHHWLLDKLSGCY [RPS4A] | 2.35 ± 0.15 | 2.31 ± 0.23 | 2.2 ± 0.1 | 2.26 ± 0.14 |
| AGKVKSQTPKVEKTEKP [RPS30A] | 2.93 ± 0.055 | 3.18 ± 0.078 | 2.9 ± 0.093 | 2.95 ± 0.072 |
| LHVPNLQPPKTSSRGRD [SMC4] | 2.18 ± 0.039 | 2.44 ± 0.044 | 2.52 ± 0.043 | 2.29 ± 0.054 |
| EILNIFKHISVKDFTSL [RPO21] | 1.85 ± 0.046 | 2.41 ± 0.14 | 2.23 ± 0.12 | 2.14 ± 0.11 |
| LDQTKDTRITHLLRQTN [SNF2] | 1.32 ± 0.029 | 1.34 ± 0.036 | 1.41 ± 0.034 | 1.54 ± 0.061 |
| AELLVLKILKQVMEEKL [PUP2] | 2.56 ± 0.24 | 2.73 ± 0.16 | 2.75 ± 0.087 | 2.69 ± 0.24 |
| LIDSLENHLLVMKQVET [PRP28] | 2.06 ± 0.063 | 2.49 ± 0.11 | 2.19 ± 0.073 | 1.69 ± 0.19 |
| NNLHELWALLNFLLPDI [ISW2] | 2.63 ± 0.041 | 2.59 ± 0.052 | 2.07 ± 0.049 | 1.89 ± 0.07 |
| QGATNEGYQNDINTIKL [SRP72] |  | 3.54 ± 0.27 | 3.15 ± 0.17 | 2.46 ± 0.23 |
| TYGISVVDVALKYPELS [NUT1] | 2.6 ± 0.041 | 2.04 ± 0.057 | 2.42 ± 0.075 | 2.04 ± 0.078 |
| KESDESKSAFSFGSKPT [YJL041W/NSP1] | 3.108 ± 0.031 | 3.1 ± 0.048 | 3.22 ± 0.061 | 3.198 ± 0.029 |
| MTRILPQQSRYISFIKD [RPN2] | 1.92 ± 0.053 | 2.16 ± 0.057 | 2.6 ± 0.057 | 1.87 ± 0.067 |
| FQSQQRRKDTSMVLFFV [RPB9] | 1.46 ± 0.044 | 1.55 ± 0.083 | 1.57 ± 0.14 | 1.62 ± 0.16 |
| SPEQIDASPDSLEALID [YCS4] | 3.05 ± 0.041 | 2.92 ± 0.054 | 2.88 ± 0.049 | 2.94 ± 0.044 |

| Sequence | protein stability index (ubr1∆) | protein stability index (doa10∆) | protein stability index (pdr5∆) | protein stability index (san1∆) |
| --- | --- | --- | --- | --- |
| EGNVPQTLAPVPYETFI [RPL21A] | 2.78 ± 0.056 | 3.06 ± 0.066 | 2.74 ± 0.056 | 3.08 ± 0.052 |
| STAFQNTPLSLPTRGTL [COR1] | 2.59 ± 0.035 | 2.27 ± 0.05 | 2.38 ± 0.038 | 1.97 ± 0.05 |
| WSCIVVENWIIDDKGVL [ITC1] | 2.95 ± 0.063 | 2.18 ± 0.058 | 2.72 ± 0.08 | 2.71 ± 0.12 |
| QKSINHPPDFKRMLLSL [SNF2] | 1.38 ± 0.022 | 1.66 ± 0.04 | 1.42 ± 0.039 | 1.71 ± 0.062 |
| DSIPLRITNSFYSTNSQ [RPN9] | 2.9 ± 0.21 | 2.56 ± 0.14 | 2.65 ± 0.13 | 2.58 ± 0.18 |
| KHEDLSLEQRQEVTKFA [RPN4] |  | 2.85 ± 0.15 | 3.05 ± 0.23 | 2.84 ± 0.1 |
| CQYMVACVPLLPPPEDV [RPN1] | 2.76 ± 0.053 | 2.03 ± 0.046 | 2.57 ± 0.073 | 2.65 ± 0.048 |
| GWLGALTMANLPSWSLG [ARP7] | 2.92 ± 0.057 | 3.07 ± 0.078 | 3.08 ± 0.062 | 2.68 ± 0.083 |
| LDLANSGDESNVISSKD [YDL116W/NUP84] | 3.26 ± 0.063 | 3.31 ± 0.09 | 3.31 ± 0.067 | 3.25 ± 0.051 |
| LFDEFGNLIGVDPFDSD [SNU114] | 3.17 ± 0.058 | 3.12 ± 0.078 | 3.04 ± 0.069 | 2.87 ± 0.069 |
| HTSSGSVSFKVFLLLQA [BRR2] | 1.62 ± 0.056 | 1.79 ± 0.042 | 1.84 ± 0.044 | 1.5 ± 0.074 |
| DAEVAQFLEQGLSIHPT [SRP68] | 3.1 ± 0.042 | 2.79 ± 0.057 | 3 ± 0.063 | 2.76 ± 0.073 |
| NRRLVYSRILKSMGRKC [YCG1] | 1.14 ± 0.067 | 1.41 ± 0.12 | 1.17 ± 0.084 | 1.3 ± 0.2 |
| KDSLWQSEHLEAVVDQD [FAS1] | 3.41 ± 0.09 | 3.43 ± 0.24 | 3.36 ± 0.14 | 3.46 ± 0.088 |
| QDVLKGSSASSRKAHGL [POP1] | 3.14 ± 0.067 | 3.27 ± 0.062 | 3.06 ± 0.064 | 3.1 ± 0.059 |
| MNLKKELQGYIELSVPD [SRB5] | 2.83 ± 0.1 | 2.6 ± 0.21 | 3.26 ± 0.14 | 3.15 ± 0.075 |
| EQFLETDSDFAKYHAKL [SRP68] | 2.77 ± 0.089 | 2.83 ± 0.07 | 2.94 ± 0.067 | 2.79 ± 0.05 |
| DSKDGTTLNIKVEKRVL [SMB1] | 3.45 ± 0.27 |  | 3.66 ± 0.22 |  |
| MLQMKGKLLRNYTQNID [SIR2] | 2.02 ± 0.058 | 2.91 ± 0.076 | 2.36 ± 0.11 | 2.78 ± 0.086 |
| NDLDEDDIYDISLLKNR [RPN4] | 3.22 ± 0.2 | 2.87 ± 0.12 | 3.2 ± 0.11 | 3.23 ± 0.14 |
| IQHIAAAMVPFIKFKLI [CDC53] | 2.43 ± 0.048 | 2.42 ± 0.048 | 2.42 ± 0.043 | 2.42 ± 0.056 |
| KRRFDPSSSDSNGPRAA [RRP6] | 3.33 ± 0.052 | 3.25 ± 0.073 | 3.31 ± 0.089 | 3.21 ± 0.048 |
| QRVFDETEQEYSPSNEI [YDL116W/NUP84] | 3.29 ± 0.043 | 3.28 ± 0.067 | 3.46 ± 0.069 | 3.21 ± 0.058 |
| VTTFVFTGQGSQEQGMG [FAS1] | 3.68 ± 0.18 | 3.46 ± 0.15 | 3.49 ± 0.13 | 3.48 ± 0.14 |
| KPAFSFGAKPDENKASA [YJL041W/NSP1] | 3.24 ± 0.063 | 3.16 ± 0.093 | 3.3 ± 0.074 | 2.76 ± 0.06 |

Reference: the supplement of paper PMC9732359
